The experiment deals with human recombinant SNAP25 (Synaptosomal Associated Protein 25) (human), P60880. As to the kind of experiment: SPR. (SPR reads the build-up and loss of mass on a sensor chip optically.)
Chain of human recombinant SNAP25 (Synaptosomal Associated Protein 25) (human), P60880 (P60880 whole entry): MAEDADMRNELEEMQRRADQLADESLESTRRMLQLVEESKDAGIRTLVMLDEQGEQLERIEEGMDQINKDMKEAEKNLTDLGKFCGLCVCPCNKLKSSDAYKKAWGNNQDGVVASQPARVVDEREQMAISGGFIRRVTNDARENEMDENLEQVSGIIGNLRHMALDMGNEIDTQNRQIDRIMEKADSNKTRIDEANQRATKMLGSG

B1: Bovine Type VI Collagen (complex)
chain 1: not shown
chain 2: QQQEVISPGPSDRNSCPEKADCPVHVYFVLDTSESITMQSPTDSLLYHMQQFVLQFISQLQDELYLDQVALSWRYGGLHFSDLVEVFSPPGSDRASFTKSLQSISSFRRGTFTDCMLANMTQEVRRHVGKGVVNFAVVITDGHVTGSPCGGIKLQAERAREEGIRLFAVPPNLKLNEQGLRDIANTPHELYRNNYATMRPDSTEIDQDTINRIIKVMKHEAYGECYKVSCLEIPGPPGPKGYRGQKGAKGNMGEPGEPGQKGRQGDPGIEGPIGFPGPKGVPGFKGEKGEFGADGRKGAPGLAGKNGTDGQKGKLGRIGPPGCKGDTGDRGPDGYVGEAGSPGERGDQGSKGDPGRPGRRGPPGENGAKGSKGYQGNNGAPGSPGLKGAKGGPGPRGPKGEPGRRGDPGTKGGPGSDGPKGEKGDPGPEGPRGLAGEVGNKGAKANRGLPGPRGPQGTVGEPGKQGSRGDPGDAGPRGDSGQPGPKGDPGRPGFSYPGPRGAPGDKGEPGPPGPEGGRGDFGSKGEPGRKGQKGEPADPGPPGEPGPRGQRGAPGPEGEPGPPGDPGLTECDVMTYVRETCGCCDCEKRCGALDVVFVIDSSESIGYTNFTLEKNFVINVVNRLGAIAKDPKSETGTRVGVVQYSHEGTFEAIQLDDERIDSLSSFKEAVKNLEWIAGGTWTPSALKFAYNKLIKESRRQKTRVFAVVITDGRHDPRDDDLNLRALCNHEVTVTAIGIGDMFHEKHESENLYSIACDKPQQVRNMTLFSDLVAEKFIDDMEDVLCPDPQIVCPDLPCQTELYVAQCTQRPVDIVFLLDGSERLGEQNFHKVRRFVEEVSRRLTLARKDDDPLNARVALLQFGGPREQQVAFPLTSNLTVIQEALASARYLNSFSHVGTGIVQAINQVVQGARAGARRHAELSFVFLTDGVTGNDSLDEAVHSMRKQNVVPTVVAVGSDVDTDVLSKISLGDPAAVFREKDYDSLAQPGFFDRFIRWIC
chain 3: not shown
One may read the Kd as the free concentration of one partner at which half of the binding sites on the other are occupied at equilibrium, for simple one-to-one binding. Regarding B1, the Kd stood at 15 nM.

These data come from publication PMC11429891.
